The numbers were not newly measured in PMC4618177, which cites them from elsewhere.

Like-named read-outs stand apart in the source and are kept apart here.

Usually Kd stands for a measure of binding affinity in units of concentration.

Data set [1] deals with ARF5 PB1 (Arabidopsis thaliana) (UniProt P93024).
Data set [2] deals with IAA17 PB1 (Arabidopsis thaliana) (UniProt P93830).
Data set [3] has the same target. The source holds these as a separate data set.

Regarding ARF5 PB1 (from UniProt P93024), the Kd in data set [1] was 860 nM; in data set [2] it was 73 nM. Take IAA17 PB1 (from UniProt P93830): in data set [3], the Kd is 6600 nM.
